# T1: interferon-alpha receptor (type I interferon receptor comprising receptor subunits IFNAR-2 and IFNAR-1) (human, UniProt P17181 28-557; P48551 27-515)
# T1 sequence (looked up) 1: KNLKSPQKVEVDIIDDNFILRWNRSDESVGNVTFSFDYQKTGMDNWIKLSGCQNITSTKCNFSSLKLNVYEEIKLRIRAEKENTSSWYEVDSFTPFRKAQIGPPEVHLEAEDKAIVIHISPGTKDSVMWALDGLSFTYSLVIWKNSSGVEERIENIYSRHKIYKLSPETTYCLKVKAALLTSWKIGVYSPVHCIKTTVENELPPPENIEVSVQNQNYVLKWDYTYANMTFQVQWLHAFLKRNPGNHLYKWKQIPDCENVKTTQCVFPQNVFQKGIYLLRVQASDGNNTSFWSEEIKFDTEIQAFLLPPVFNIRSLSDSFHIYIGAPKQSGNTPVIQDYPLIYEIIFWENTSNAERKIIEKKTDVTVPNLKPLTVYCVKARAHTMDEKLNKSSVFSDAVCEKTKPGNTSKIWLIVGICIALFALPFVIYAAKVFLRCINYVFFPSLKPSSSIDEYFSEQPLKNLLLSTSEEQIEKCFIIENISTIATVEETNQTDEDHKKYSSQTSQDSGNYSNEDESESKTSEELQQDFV
# T1 sequence (looked up) 2: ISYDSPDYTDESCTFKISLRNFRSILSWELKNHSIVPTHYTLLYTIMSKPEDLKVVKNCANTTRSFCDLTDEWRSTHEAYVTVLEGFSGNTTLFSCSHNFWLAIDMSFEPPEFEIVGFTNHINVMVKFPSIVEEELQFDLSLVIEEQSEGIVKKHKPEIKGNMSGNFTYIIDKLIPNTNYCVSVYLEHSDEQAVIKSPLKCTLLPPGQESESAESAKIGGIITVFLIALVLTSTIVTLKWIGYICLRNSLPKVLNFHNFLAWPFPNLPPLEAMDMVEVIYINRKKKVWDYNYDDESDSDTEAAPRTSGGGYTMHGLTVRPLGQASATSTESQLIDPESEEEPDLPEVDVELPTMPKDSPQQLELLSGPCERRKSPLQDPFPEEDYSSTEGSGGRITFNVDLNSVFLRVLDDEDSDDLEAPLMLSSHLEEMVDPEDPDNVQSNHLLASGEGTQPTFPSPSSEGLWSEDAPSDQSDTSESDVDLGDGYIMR
# B1: MonoPEGylated 14epi18 (ligand)
# chain: MCDLPQTHSLGHRRTMMLLAQMRRISLFSCLKDRHDFRFPQEEFDGNHAQKVQAIFLFYEMMQQTFNLFSTKDSSAAWDETLLEKFYIELFQQMNDLEACVMQEVGVEETPLMNVDSILAVRKYFQRITLYLTEKKYSPCAWEVVRAEIMRSFSFSTNLQESLRSKE
# modifications: single 40 kDa branched PEG (mPEG2-NHS) on a lysine; positional isomers predominantly monoPEGylated at Lys122 and Lys135
# B2: MonoPEGylated 25epi19 (ligand)
# chain: MCDLPQTHSLSNRRTLMLMAQMRRISPFSCLKDRHDFGFPEEEFDGHQAQKVQAIFLLYELIQQTFNLFSTKDSSAAWDETLLEKFYIELFQQMNNLEACVIQEVGVEEIALMNVDSILAVRKYFRRITLYLTEKKYSPCAWEVVRAEIMRSFSFSTNLQESLRSKE
# modifications: single 40 kDa branched PEG (mPEG2-NHS) on a lysine; positional isomers predominantly monoPEGylated at Lys31, Lys122 and Lys135
# B3: 14epi18 (ligand)
# chain: CDLPQTHSLGHRRTMMLLAQMRRISLFSCLKDRHDFRFPQEEFDGNHAQKVQAIFLFYEMMQQTFNLFSTKDSSAAWDETLLEKFYIELFQQMNDLEACVMQEVGVEETPLMNVDSILAVRKYFQRITLYLTEKKYSPCAWEVVRAEIMRSFSFSTNLQESLRSKE
# B4: 25epi19 (ligand)
# chain: CDLPQTHSLSNRRTLMLMAQMRRISPFSCLKDRHDFGFPEEEFDGHQAQKVQAIFLLYELIQQTFNLFSTKDSSAAWDETLLEKFYIELFQQMNNLEACVIQEVGVEEIALMNVDSILAVRKYFRRITLYLTEKKYSPCAWEVVRAEIMRSFSFSTNLQESLRSKE
# B5: B9x14EC4 (ligand)
# chain: CDLPQTHSLGHRRTMMLLAQMRRISLFSCLKDRHDFRFPQEEFDGNHFQKVQAIFLFYEMMQQTFNLFSTKDSSAAWDETLLEKFYIELFQQMNDLEACVMQEVGVEETPLMNVDSILAVRKYFQRITLYLTEKKYSPCAWEVVRAEIMRSFSFSTNLQESLRSKE
# B6: 14epi21 (ligand)
# chain: CDLPQTHSLGHRRTMMLLAQMRRISLFSCLKDRHDFRFPQEEFDGNHFQKVQAIALFYEMMQQTFNLFSTKDSSAAWDETLLEKFYIELFQQMNDLEACVMQEVGVEETPLMNVDSILAVRKYFQRITLYLTEKKYSPCAWEVVRAEIMRSFSFSTNLQESLRSKE
# B7: 14epi33 (ligand)
# chain: CDLPQTHSLGHRRTMMLLAQMRRISLFSCLKDRHDFRFPQEEFDGNHFQKVPAISLFYEMMQQTFNLFSTKDSSAAWDETLLEKFYIELFQQMNDLEACVMQEVGVEETPLMKEDSILAVRKYFQRITLYLTEKKYSPCAWEVVRAEIMRSFSFSTNLQESLRSKE
# B8: 14epi20 (ligand)
# chain: CDLPQTHSLGHRRTMMLLAQMRRISLFSCLKDRHDFRFPQEEFDGNHAQKVQAISLFYEMMQQTFNLFSTKDSSAAWDETLLEKFYIELFQQMNDLEACVMQEVGVEETPLMNVDSILAVRKYFQRITLYLTEKKYSPCAWEVVRAEIMRSFSFSTNLQESLRSKE
# B9: 14epi25 (ligand)
# chain: CDLPQTHSLGHRRTMMLLAQMRRISLFSCLKDRHDFRFPQEEFDGNHLQKVQAISLFYEMMQQTFNLFSTKDSSAAWDETLLEKFYIELFQQMNDLEACVMQEVGVEETPAMNVDSILAVRKYFQRITLYLTEKKYSPCAWEVVRAEIMRSFSFSTNLQESLRSKE
# B10: 14epi15 (ligand)
# chain: CDLPQTHSLGHRRTMMLLAQMRRISLFSCLKDRHDFRFPQEEFDGNHLQKVQAIFLFYEMMQQTFNLFSTKDSSAAWDETLLEKFYIELFQQMNDLEACVMQEVGVEETPLMNVDSILAVRKYFQRITLYLTEKKYSPCAWEVVRAEIMRSFSFSTNLQESLRSKE
# B11: 14epi34 (ligand)
# chain: CDLPQTHSLGHRRTMMLLAQMRRISLFSCLKDRHDFRFPQEEFDGNHFQKVPAISLFYEMMQQTFNLFSTKDSSAAWDETLLEKFYIELFQQMNDLEACVMQEVGVEETPLMNEDSILAVRKYFQRITLYLTEKKYSPCAWEVVRAEIMRSFSFSTNLQESLRSKE
# B12: 14epi19 (ligand)
# chain: CDLPQTHSLGHRRTMMLLAQMRRISLFSCLKDRHDFRFPQEEFDGNHAQKVQAIALFYEMMQQTFNLFSTKDSSAAWDETLLEKFYIELFQQMNDLEACVMQEVGVEETPLMNVDSILAVRKYFQRITLYLTEKKYSPCAWEVVRAEIMRSFSFSTNLQESLRSKE
# B13: 14epi29 (ligand)
# chain: CDLPQTHSLGHRRTMMLLAQMRRISLFSCLKDRHDFRFPQEEFDGNHAQKVQAISLFYEMMQQTANLFSTKDSSAAWDETLLEKFYIELFQQMNDLEACVMQEVGVEETPLMNVDSILAVRKYFQRITLYLTEKKYSPCAWEVVRAEIMRSFSFSTNLQESLRSKE
# B14: 14epi26 (ligand)
# chain: CDLPQTHSLGHRRTMMLLAQMRRISLFSCLKDRHDFRFPQEEFDGNHLQKVQAISLFYEMMQQTFNLFSTKDSSAAWDETLLEKFYIELFQQMNDLEACVMQEVGVEETPLMKEDSILAVRKYFQRITLYLTEKKYSPCAWEVVRAEIMRSFSFSTNLQESLRSKE
# B15: 14epi17 (ligand)
# chain: CDLPQTHSLGHRRTMMLLAQMRRISLFSCLKDRHDFRFPQEEFDGNHLQKVQAISLFYEMMQQTFNLFSTKDSSAAWDETLLEKFYIELFQQMNDLEACVMQEVGVEETPLMNVDSILAVRKYFQRITLYLTEKKYSPCAWEVVRAEIMRSFSFSTNLQESLRSKE
# B16: 14epi32 (ligand)
# chain: CDLPQTHSLGHRRTMMLLAQMRRISLFSCLKDRHDFRFPQEEFDGNHLQKVPAISLFYEMMQQTFNLFSTKDSSAAWDETLLEKFYIELFQQMNDLEACVMQEVGVEETPLMKEDSILAVRKYFQRITLYLTEKKYSPCAWEVVRAEIMRSFSFSTNLQESLRSKE
# B17: 14epi31 (ligand)
# chain: CDLPQTHSLGHRRTMMLLAQMRRISLFSCLKDRHDFRFPQEEFDGNHAQKVQAIALFYEMMQQTFNLFSTKDSSAAWDETLLEKFYIELFQQMNDLEACVMQEVGVEETPLMKEDSILAVRKYFQRITLYLTEKKYSPCAWEVVRAEIMRSFSFSTNLQESLRSKE
# B18: 14epi16 (ligand)
# chain: CDLPQTHSLGHRRTMMLLAQMRRISLFSCLKDRHDFRFPQEEFDGNHLQKVQAIALFYEMMQQTFNLFSTKDSSAAWDETLLEKFYIELFQQMNDLEACVMQEVGVEETPLMNVDSILAVRKYFQRITLYLTEKKYSPCAWEVVRAEIMRSFSFSTNLQESLRSKE
# B19: 14epi22 (ligand)
# chain: CDLPQTHSLGHRRTMMLLAQMRRISLFSCLKDRHDFRFPQEEFDGNHFQKVQAISLFYEMMQQTFNLFSTKDSSAAWDETLLEKFYIELFQQMNDLEACVMQEVGVEETPLMNVDSILAVRKYFQRITLYLTEKKYSPCAWEVVRAEIMRSFSFSTNLQESLRSKE
# Biological target: T1, interferon-alpha receptor (type I …)
# Experiment: cell-based or functional assay
row,Binder,"HeLa-EMCV antiviral assay, antiviral activity relative to monoPEGylated IFN-alpha 2a [fold]"
1,B1,> 10
2,B2,> 10

# Biological target: T1, interferon-alpha receptor (type I …)
# Experiment: cell-based or functional assay
# Remark: another data set of the same source
row,Binder,"TH1 activity (IFN-gamma in supernatants of naive T cells), Fold over IFN-alpha 2a [fold]"
1,B3,> 30
2,B4,> 30

# Biological target: T1, interferon-alpha receptor (type I …)
# Experiment: cell-based or functional assay
# Remark: another data set of the same source
Binder,HeLa/EMCV Antiviral activity relative to huIFN-alpha 2b [fold],HuH7/EMCV Antiviral activity relative to huIFN-alpha 2b [fold]
B5,> 8,> 8
B6,> 8,> 8
B7,> 8,> 8
B8,> 8,> 8
B3,> 8,> 8
B9,> 8,> 8
B10,> 8,> 8
B11,> 8,> 8
B12,> 8,> 8
B13,> 8,
B14,> 8,
B15,> 8,> 8
B16,> 8,> 8
B17,> 8,
B18,> 8,> 8
B19,> 8,
B4,> 8,> 8
